40 molecules from patent US20260242478A1 (published 2026) can be followed below.

In experiment [1] the target is T1, Anti-CD28 Fab (SEQ ID NOs: 696, 697).
T1 construct: In the phage ELISA the Fab was biotinylated and captured on neutravidin coated plates
Put plainly: phage binding ELISA, clonal phage on biotinylated anti-CD28 Fab captured on neutravidin plates.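 Also: crude clonal phage supernatants added to wells pretreated with CD28 antigen or blocking buffer only, bound phage detected by HRP-linked anti-M13 antibody.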
T1 sequence (VH, as listed by the source, chain 1 of 2): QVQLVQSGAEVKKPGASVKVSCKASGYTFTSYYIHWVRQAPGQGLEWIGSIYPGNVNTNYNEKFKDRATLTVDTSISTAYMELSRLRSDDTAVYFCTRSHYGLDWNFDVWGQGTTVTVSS
T1 sequence (VL, as listed by the source, chain 2 of 2): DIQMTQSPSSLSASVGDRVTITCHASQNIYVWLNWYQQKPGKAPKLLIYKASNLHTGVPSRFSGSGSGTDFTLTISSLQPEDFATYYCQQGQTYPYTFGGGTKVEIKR
Experimental: (§1) After panning, phage infected bacteria were plated out and colonies picked into 96 well blocks. Clonal phage was then amplified and separated from bacterial cells via centrifugation.
(§2) Clonal phage were harvested as crude supematants and screened via standard ELISAs. […] Prior to the addition of clonal phage, wells were incubated with blocking buffer and CD28 antigen or blocking buffer alone. Without washing or aspirating, clonal phage supematants were then added to the wells and incubated for a short time. Wells were then washed followed by detection of bound phage using a horse radish conjugated anti-M13 antibody. Clonal phage of interest were then sent for sequence analysis.

Experiment [2] has the same target. As to the kind of experiment: phage binding ELISA on captured anti-CD28 Fab, wells pre-incubated with CD28 antigen as competitor.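 Also: crude clonal phage supernatants added to wells preloaded with CD28 antigen, bound phage read by HRP-conjugated anti-M13 antibody, control wells got blocking buffer alone without CD28.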 Background: ELISA stands for enzyme-linked immunosorbent assay.
Target sequence in this assay (VH, as listed by the source, chain 1 of 2): as the sequence (VH, as listed by the source, chain 1 of 2) above
Target sequence in this assay (VL, as listed by the source, chain 2 of 2): as the sequence (VL, as listed by the source, chain 2 of 2) above
Experimental: as §1, §2
Experiment [3] concerns the target T2, Anti-CD28 Fab (SEQ ID NOs: 696, 697).
T2 construct: Biotinylated and captured on neutravidin coated plates in the phage ELISA
Put plainly: phage ELISA; clonal phage on plate-captured biotinylated anti-CD28 Fab, anti-M13 HRP detection.
T2 sequence (VH, as listed by the source, chain 1 of 2): as the sequence (VH, as listed by the source, chain 1 of 2) above
T2 sequence (VL, as listed by the source, chain 2 of 2): as the sequence (VL, as listed by the source, chain 2 of 2) above
Experimental: as §1, §2

Experiment [4] shares this target. Put plainly: phage ELISA; clonal phage on plate-captured anti-CD28 Fab pre-incubated with CD28 antigen as competitor.
Target sequence in this assay (VH, as listed by the source, chain 1 of 2): as the sequence (VH, as listed by the source, chain 1 of 2) above
Target sequence in this assay (VL, as listed by the source, chain 2 of 2): as the sequence (VL, as listed by the source, chain 2 of 2) above
Experimental: as §1, §2
For experiment [5], the target named is T3, Anti-CD28 Fab (SEQ ID NOs: 696, 697).
T3 construct: Biotinylated and captured on neutravidin coated plates in the phage ELISA
Put plainly: phage ELISA; captured anti-CD28 Fab pre-incubated with CD28 antigen as competitor, anti-M13 HRP.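 Also: crude clonal phage supernatants added without washing after CD28 pre-incubation, bound phage detected with HRP anti-M13 antibody, reference wells got blocking buffer lacking CD28.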
T3 sequence (VH, as listed by the source, chain 1 of 2): as the sequence (VH, as listed by the source, chain 1 of 2) above
T3 sequence (VL, as listed by the source, chain 2 of 2): as the sequence (VL, as listed by the source, chain 2 of 2) above

For experiment [6] the target is unchanged. As to the kind of experiment: phage ELISA; biotinylated anti-CD28 Fab on neutravidin plate, clonal phage supernatant, anti-M13 HRP.
Target sequence in this assay (VH, as listed by the source, chain 1 of 2): as the sequence (VH, as listed by the source, chain 1 of 2) above
Target sequence in this assay (VL, as listed by the source, chain 2 of 2): as the sequence (VL, as listed by the source, chain 2 of 2) above
Experimental: as §1, §2
Experiment [7] addresses T4, Anti-CD28 Fab (SEQ ID NOs: 696, 697).
T4 construct: Biotinylated and captured on neutravidin coated plates in the phage ELISA
As to the kind of experiment: phage ELISA on plate-captured anti-CD28 Fab pre-incubated with CD28 antigen (competitor: CD28).
Experimental: as §1, §2

Experiment [8] shares this target. As to the kind of experiment: phage ELISA, clonal phage on plate-captured biotinylated anti-CD28 Fab, anti-M13 HRP detection.
Experimental: as §1, §2

B1: Phage-966 (peptide)
peptide: YCDGHRLEYLEKCL
notes: tested as crude clonal phage supernatant
Take B1: the “Anti-CD28 Fab (SEQ ID NOs: 696, 697) signal” value in experiment [1] is 1.6. The “Anti-CD28 Fab signal in the presence of CD28” value in experiment [2] was 0.06.

B2: Phage-998 (peptide)
peptide: YCEGHLGQYMEKCL
notes: as for B1
B2: the “Phage binding ELISA, Anti-CD28 Fab signal” value in experiment [3] was 1.54. Also, the “Phage binding ELISA, Anti-CD28 Fab signal in the presence of CD28” value in experiment [4] turned out to be 0.08.

B3: Phage-999 (peptide)
peptide: YCDGHNGVYWWKCI
notes: as for B1
Consider B3, for which the “Phage binding ELISA, Anti-CD28 Fab signal” value in experiment [3] came out at 1.53. For the same molecule, the “Phage binding ELISA, Anti-CD28 Fab signal in the presence of CD28” value in experiment [4] was 0.07.
For the molecule YCEGHLEEYMAKCL [Phage-954], in experiment [5], the “Phage binding ELISA, Anti-CD28 Fab signal in the presence of CD28” value was 0.07. For the same molecule, the “Phage binding ELISA, Anti-CD28 Fab signal” value in experiment [6] was 1.62.

B4: Phage-959 (peptide)
peptide: YCDGHSVEYKLKCM
notes: as for B1
Take B4: the “Anti-CD28 Fab (SEQ ID NOs: 696, 697) signal” value in experiment [1] came to 1.61. Moreover, the “Anti-CD28 Fab signal in the presence of CD28” value in experiment [2] was found to be 0.06.

B5: Phage-967 (peptide)
peptide: YCAGHLDQYIEKCL
notes: as for B1
B5: the “Anti-CD28 Fab (SEQ ID NOs: 696, 697) signal” value in experiment [1] was determined as 1.6. Also, the “Anti-CD28 Fab signal in the presence of CD28” value in experiment [2] was found to be 0.1.

B6: Phage-1000 (peptide)
peptide: YCDGHAPEYLTKCL
notes: as for B1
Take B6: the “Phage binding ELISA, Anti-CD28 Fab signal” value in experiment [3] came to 1.53. In addition, the “Phage binding ELISA, Anti-CD28 Fab signal in the presence of CD28” value in experiment [4] came to 0.06.

B7: Phage-1001 (peptide)
peptide: YCEGHSIQYMTKCL
notes: as for B1
Turning to B7, in experiment [3], the “Phage binding ELISA, Anti-CD28 Fab signal” value was found to be 1.53. Moreover, the “Phage binding ELISA, Anti-CD28 Fab signal in the presence of CD28” value in experiment [4] was 0.13.

B8: Phage-962 (peptide)
peptide: YCEGHLPLYMDKCL
notes: as for B1
B8: in experiment [1], the “Anti-CD28 Fab (SEQ ID NOs: 696, 697) signal” value was 1.6. The “Anti-CD28 Fab signal in the presence of CD28” value in experiment [2] came out at 0.08.

B9: Phage-963 (peptide)
peptide: YCEGHSAAYMQKCL
notes: as for B1
For the molecule B9, in experiment [1], the “Anti-CD28 Fab (SEQ ID NOs: 696, 697) signal” value was 1.6. Further, the “Anti-CD28 Fab signal in the presence of CD28” value in experiment [2] was 0.09.
With YCDGHLLEYKAKCL [Phage-953], in experiment [5], the “Phage binding ELISA, Anti-CD28 Fab signal in the presence of CD28” value worked out at 0.07. Further, the “Phage binding ELISA, Anti-CD28 Fab signal” value in experiment [6] is 1.62.

B10: Phage-969 (peptide)
peptide: YCDGHSEAYMWKCL
notes: as for B1
In the case of B10, in experiment [1], the “Anti-CD28 Fab (SEQ ID NOs: 696, 697) signal” value was 1.59. Also, the “Anti-CD28 Fab signal in the presence of CD28” value in experiment [2] worked out at 0.07.
Consider YCDGHLPQYLQKCT [Phage-975], for which the “Anti-CD28 Fab signal in the presence of CD28 (phage binding ELISA)” value in experiment [7] amounted to 0.07. The “Anti-CD28 Fab signal (phage binding ELISA)” value in experiment [8] is 1.58.

B11: Phage-965 (peptide)
peptide: YCDGHELQYMAKCL
notes: as for B1
As for B11, the “Anti-CD28 Fab (SEQ ID NOs: 696, 697) signal” value in experiment [1] turned out to be 1.6. Moreover, the “Anti-CD28 Fab signal in the presence of CD28” value in experiment [2] came out at 0.08.

B12: Phage-997 (peptide)
peptide: YCEGHAPVYMFKCL
notes: as for B1
Regarding B12, the “Phage binding ELISA, Anti-CD28 Fab signal” value in experiment [3] was determined as 1.54. Moreover, in experiment [4], the “Phage binding ELISA, Anti-CD28 Fab signal in the presence of CD28” value came to 0.08.
As for YCEGHSWEHMEKCL [Phage-973], in experiment [7], the “Anti-CD28 Fab signal in the presence of CD28 (phage binding ELISA)” value turned out to be 0.06. Further, in experiment [8], the “Anti-CD28 Fab signal (phage binding ELISA)” value amounted to 1.58.
The matching figures for YCDGHRVEYMAKCL [Phage-972]: 0.09 and 1.58.
Regarding YCEGHADEYMWKCL [Phage-970], in experiment [7], the “Anti-CD28 Fab signal in the presence of CD28 (phage binding ELISA)” value was determined as 0.06. Further, the “Anti-CD28 Fab signal (phage binding ELISA)” value in experiment [8] amounted to 1.59.
On the same counts, the results for YCAGHSSEYIPKCL [Phage-974] are 0.09 and 1.58.
Take YCAGHSPQYMEKCL [Phage-956]: the “Phage binding ELISA, Anti-CD28 Fab signal in the presence of CD28” value in experiment [5] was found to be 0.06. In experiment [6], the “Phage binding ELISA, Anti-CD28 Fab signal” value worked out at 1.61.

B13: Phage-958 (peptide)
peptide: YCSGHLPEYMWKCL
notes: as for B1
Take B13: the “Anti-CD28 Fab (SEQ ID NOs: 696, 697) signal” value in experiment [1] is 1.61. Besides, the “Anti-CD28 Fab signal in the presence of CD28” value in experiment [2] was determined as 0.1.

B14: Phage-1003 (peptide)
peptide: YCDGHSVEYLDKCL
notes: as for B1
In the case of B14, the “Phage binding ELISA, Anti-CD28 Fab signal” value in experiment [3] worked out at 1.53. Also, the “Phage binding ELISA, Anti-CD28 Fab signal in the presence of CD28” value in experiment [4] stood at 0.08.

B15: Phage-961 (peptide)
peptide: YCAGHSPEYMQKCL
notes: as for B1
As to B15, the “Anti-CD28 Fab (SEQ ID NOs: 696, 697) signal” value in experiment [1] stood at 1.6. For the same molecule, the “Anti-CD28 Fab signal in the presence of CD28” value in experiment [2] worked out at 0.08.
With YCEGHSEEFMSKCL [Phage-982], the “Anti-CD28 Fab signal in the presence of CD28 (phage binding ELISA)” value in experiment [7] is 0.08. For the same molecule, the “Anti-CD28 Fab signal (phage binding ELISA)” value in experiment [8] was determined as 1.57.

B16: Phage-1004 (peptide)
peptide: YCDGHAWQYMWKCL
notes: as for B1
Turning to B16, the “Phage binding ELISA, Anti-CD28 Fab signal” value in experiment [3] came to 1.53. In experiment [4], the “Phage binding ELISA, Anti-CD28 Fab signal in the presence of CD28” value came out at 0.07.

B17: Phage-960 (peptide)
peptide: YCDGHAQEYMVKCL
notes: as for B1
For the molecule B17, the “Anti-CD28 Fab (SEQ ID NOs: 696, 697) signal” value in experiment [1] turned out to be 1.61. The “Anti-CD28 Fab signal in the presence of CD28” value in experiment [2] was 0.06.

B18: Phage-957 (peptide)
peptide: YCDGHSVKYMAKCL
notes: as for B1
On to B18, for which the “Anti-CD28 Fab (SEQ ID NOs: 696, 697) signal” value in experiment [1] was 1.61. The “Anti-CD28 Fab signal in the presence of CD28” value in experiment [2] was found to be 0.06.
In the case of YCEGHLGIYMTKCL [Phage-980], the “Anti-CD28 Fab signal in the presence of CD28 (phage binding ELISA)” value in experiment [7] was 0.08. Besides, the “Anti-CD28 Fab signal (phage binding ELISA)” value in experiment [8] was found to be 1.57.

B19: Phage-968 (peptide)
peptide: YCDGHAQEFIWKCL
notes: as for B1
B19: the “Anti-CD28 Fab (SEQ ID NOs: 696, 697) signal” value in experiment [1] was 1.6. For the same molecule, the “Anti-CD28 Fab signal in the presence of CD28” value in experiment [2] is 0.1.
For the molecule YCDGHAKEYIQKCL [Phage-976], the “Anti-CD28 Fab signal in the presence of CD28 (phage binding ELISA)” value in experiment [7] came to 0.06. The “Anti-CD28 Fab signal (phage binding ELISA)” value in experiment [8] was found to be 1.58.

B20: Phage-1005 (peptide)
peptide: YCDGHLPEYLAKCL
notes: as for B1
Turning to B20, in experiment [3], the “Phage binding ELISA, Anti-CD28 Fab signal” value was 1.52. Besides, in experiment [4], the “Phage binding ELISA, Anti-CD28 Fab signal in the presence of CD28” value stood at 0.06.

B21: Phage-1002 (peptide)
peptide: YCDGHLQIYMGKCL
notes: as for B1
For the molecule B21, in experiment [3], the “Phage binding ELISA, Anti-CD28 Fab signal” value worked out at 1.53. In addition, in experiment [4], the “Phage binding ELISA, Anti-CD28 Fab signal in the presence of CD28” value is 0.06.
Regarding YCDGHAEEYLLKCL [Phage-979], the “Anti-CD28 Fab signal in the presence of CD28 (phage binding ELISA)” value in experiment [7] amounted to 0.05. In experiment [8], the “Anti-CD28 Fab signal (phage binding ELISA)” value was found to be 1.57.
On the same counts, the results for YCDGHSWQYMWKCI [Phage-981] are 0.09 and 1.57.

B22: Phage-964 (peptide)
peptide: YCEGHMPEYLQKCL
notes: as for B1
Turning to B22, the “Anti-CD28 Fab (SEQ ID NOs: 696, 697) signal” value in experiment [1] turned out to be 1.6. Moreover, the “Anti-CD28 Fab signal in the presence of CD28” value in experiment [2] was determined as 0.1.
As for YCEGHLPQYMVKCL [Phage-977], the “Anti-CD28 Fab signal in the presence of CD28 (phage binding ELISA)” value in experiment [7] came to 0.07. Also, the “Anti-CD28 Fab signal (phage binding ELISA)” value in experiment [8] turned out to be 1.58.
Turning to YCDGHSPEYMLKCL [Phage-955], in experiment [5], the “Phage binding ELISA, Anti-CD28 Fab signal in the presence of CD28” value worked out at 0.07. The “Phage binding ELISA, Anti-CD28 Fab signal” value in experiment [6] is 1.61.
On to YCQGHADEYMAKCL [Phage-978], for which the “Anti-CD28 Fab signal in the presence of CD28 (phage binding ELISA)” value in experiment [7] turned out to be 0.08. Besides, in experiment [8], the “Anti-CD28 Fab signal (phage binding ELISA)” value is 1.58.
Consider YCDGHELKYMLKCL [Phage-952], for which, in experiment [5], the “Phage binding ELISA, Anti-CD28 Fab signal in the presence of CD28” value amounted to 0.08. For the same molecule, in experiment [6], the “Phage binding ELISA, Anti-CD28 Fab signal” value amounted to 1.62.
YCEGHSVEYIGKCL [Phage-971]: in experiment [7], the “Anti-CD28 Fab signal in the presence of CD28 (phage binding ELISA)” value came out at 0.07. For the same molecule, the “Anti-CD28 Fab signal (phage binding ELISA)” value in experiment [8] is 1.59.
